{"source": "paper PMC9638941", "about": "“Molecular basis of dual anti-CRISPR and auto-regulatory functions of AcrIF24” (Nucleic Acids Research, 2022)", "binders": {"B1": {"name": "IR-S (dsDNA)", "DNA 1": "TAGCTCGATTCGAGCTA", "DNA 2": "TAGCTCGAATCGAGCTA"}, "B2": {"name": "IR-L (dsDNA)", "DNA 1": "CAGAATATCATTGCATAGCTCGATTCGAGCTAATATAGTAATACCAACAGCGCGGCACACCGCCAGCACTGAACCT", "DNA 2": "AGGTTCAGTGCTGGCGGTGTGCCGCGCTGTTGGTATTACTATATTAGCTCGAATCGAGCTATGCAATGATATTCTG"}}, "key": {"AcrIF24 S45Y [1]": {"molecular_target": "T1, AcrIF24 S45Y (Pseudomonas aeruginosa prophage, UniProt A0AA82WNY5 1-228, S45Y)", "T1 sequence": "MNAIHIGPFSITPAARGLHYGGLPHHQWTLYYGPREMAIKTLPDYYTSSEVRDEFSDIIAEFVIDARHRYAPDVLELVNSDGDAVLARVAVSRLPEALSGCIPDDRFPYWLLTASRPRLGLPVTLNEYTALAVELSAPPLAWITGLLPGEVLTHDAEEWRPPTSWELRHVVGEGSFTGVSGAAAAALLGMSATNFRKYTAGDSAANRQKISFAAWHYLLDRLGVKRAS", "assay": "EMSA; 1 uM protein; EMSA-P: 10 mM HEPES pH 7.5, 1 mM MgCl2, 20 mM KCl, 1 mM TCEP, 5% glycerol, 30 min on ice; 10% native 0.5x TBE gel, SYBR Gold; Cascade EMSA buffer not in material", "conditions": "protein: recombinant; chain copies: 2; label: none (SYBR Gold stain); blunt"}, "AcrIF24 K197Y [2]": {"molecular_target": "T2, AcrIF24 K197Y (Pseudomonas aeruginosa prophage, UniProt A0AA82WNY5 1-228, K197Y)", "T2 sequence": "T1 sequence with Y45S, K197Y", "assay": "EMSA; 1 uM protein; EMSA-P: 10 mM HEPES pH 7.5, 1 mM MgCl2, 20 mM KCl, 1 mM TCEP, 5% glycerol, 30 min on ice; 10% native 0.5x TBE gel, SYBR Gold; Cascade EMSA buffer not in material", "conditions": "protein: recombinant; chain copies: 2; label: none (SYBR Gold stain); blunt"}, "AcrIF24 R207W [3]": {"molecular_target": "T3, AcrIF24 R207W (Pseudomonas aeruginosa prophage, UniProt A0AA82WNY5 1-228, R207W)", "T3 sequence": "T1 sequence with Y45S, R207W", "assay": "EMSA; 1 uM protein; EMSA-P: 10 mM HEPES pH 7.5, 1 mM MgCl2, 20 mM KCl, 1 mM TCEP, 5% glycerol, 30 min on ice; 10% native 0.5x TBE gel, SYBR Gold; Cascade EMSA buffer not in material", "conditions": "protein: recombinant; chain copies: 2; label: none (SYBR Gold stain); blunt"}, "AcrIF24 R16W": {"molecular_target": "T4, AcrIF24 R16W (Pseudomonas aeruginosa prophage, UniProt A0AA82WNY5 1-228, R16W)", "T4 sequence": "T1 sequence with R16W, Y45S", "assay": "EMSA; 1 uM protein; EMSA-P: 10 mM HEPES pH 7.5, 1 mM MgCl2, 20 mM KCl, 1 mM TCEP, 5% glycerol, 30 min on ice; 10% native 0.5x TBE gel, SYBR Gold; Cascade EMSA buffer not in material", "conditions": "protein: recombinant; chain copies: 2; label: none (SYBR Gold stain); blunt"}, "AcrIF24 S45Y [4]": {"molecular_target": "T1, AcrIF24 S45Y", "assay": "EMSA; native PAGE; EMSA-P: 10 mM HEPES pH 7.5, 1 mM MgCl2, 20 mM KCl, 1 mM TCEP, 5% glycerol, 30 min on ice; 10% native 0.5x TBE gel, SYBR Gold; Cascade EMSA buffer not in material", "conditions": "protein: recombinant; chain copies: 2; label: none (SYBR Gold stain); blunt"}, "AcrIF24 K197Y [5]": {"molecular_target": "T2, AcrIF24 K197Y", "assay": "EMSA; native PAGE; EMSA-P: 10 mM HEPES pH 7.5, 1 mM MgCl2, 20 mM KCl, 1 mM TCEP, 5% glycerol, 30 min on ice; 10% native 0.5x TBE gel, SYBR Gold; Cascade EMSA buffer not in material", "conditions": "protein: recombinant; chain copies: 2; label: none (SYBR Gold stain); blunt"}, "AcrIF24 R207W [6]": {"molecular_target": "T3, AcrIF24 R207W", "assay": "EMSA; native PAGE; EMSA-P: 10 mM HEPES pH 7.5, 1 mM MgCl2, 20 mM KCl, 1 mM TCEP, 5% glycerol, 30 min on ice; 10% native 0.5x TBE gel, SYBR Gold; Cascade EMSA buffer not in material", "conditions": "protein: recombinant; chain copies: 2; label: none (SYBR Gold stain); blunt"}, "AcrIF24 Y128K/Y217W": {"molecular_target": "T5, AcrIF24 Y128K/Y217W (Pseudomonas aeruginosa prophage, UniProt A0AA82WNY5 1-228, Y128K;Y217W)", "T5 sequence": "T1 sequence with Y45S, Y128K, Y217W", "assay": "EMSA; EMSA-P: 10 mM HEPES pH 7.5, 1 mM MgCl2, 20 mM KCl, 1 mM TCEP, 5% glycerol, 30 min on ice; 10% native 0.5x TBE gel, SYBR Gold; Cascade EMSA buffer not in material", "conditions": "protein: recombinant; label: none (SYBR Gold stain); blunt"}}, "note": "Residue numbers refer to the chain shown, from its start.", "data": [{"binder": "B1", "values": [{"measurement": "binding result", "setting": "AcrIF24 S45Y [1]", "value": "binds"}, {"measurement": "binding result", "setting": "AcrIF24 K197Y [2]", "value": "no binding"}, {"measurement": "binding result", "setting": "AcrIF24 R207W [3]", "value": "no binding"}, {"measurement": "binding result", "setting": "AcrIF24 R16W", "value": "binds"}]}, {"binder": "B2", "values": [{"measurement": "binding result", "setting": "AcrIF24 S45Y [4]", "value": "binds"}, {"measurement": "binding result", "setting": "AcrIF24 K197Y [5]", "value": "no binding"}, {"measurement": "binding result", "setting": "AcrIF24 R207W [6]", "value": "no binding"}, {"measurement": "binding result", "setting": "AcrIF24 Y128K/Y217W", "value": "no binding"}]}]}
